{
  "source": "paper PMC6202052",
  "key": {"[1]": {"biological_target": "biotinylated human N1 ectodomain fragment containing EGF repeats 6–15 (human) (UniProt P46531)", "sequence (P46531 216-604)": "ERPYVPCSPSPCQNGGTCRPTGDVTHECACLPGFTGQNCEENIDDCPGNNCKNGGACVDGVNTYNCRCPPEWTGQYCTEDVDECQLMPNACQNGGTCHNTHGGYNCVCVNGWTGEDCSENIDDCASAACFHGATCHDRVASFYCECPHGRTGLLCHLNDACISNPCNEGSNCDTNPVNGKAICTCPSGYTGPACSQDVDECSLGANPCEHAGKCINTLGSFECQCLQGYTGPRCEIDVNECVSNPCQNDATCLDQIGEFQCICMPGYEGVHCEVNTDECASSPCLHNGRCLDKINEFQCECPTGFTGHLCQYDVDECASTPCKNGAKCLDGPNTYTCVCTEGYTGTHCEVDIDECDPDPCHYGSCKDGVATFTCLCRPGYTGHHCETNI", "experiment": "BLI; BLItz instrument; biotinylated Notch1 fragment loaded on streptavidin biosensors, dipped into ligand samples of varying concentration until equilibrium; HBS-P buffer with 0.005% surfactant P20 and 5 mM CaCl2; equilibrium curves fitted with a one site specific binding model"}, "[2]": {"biological_target": "Notch1 expressed in N1rep ES cells (UniProt Q01705)", "sequence (Q01705 19-2531)": "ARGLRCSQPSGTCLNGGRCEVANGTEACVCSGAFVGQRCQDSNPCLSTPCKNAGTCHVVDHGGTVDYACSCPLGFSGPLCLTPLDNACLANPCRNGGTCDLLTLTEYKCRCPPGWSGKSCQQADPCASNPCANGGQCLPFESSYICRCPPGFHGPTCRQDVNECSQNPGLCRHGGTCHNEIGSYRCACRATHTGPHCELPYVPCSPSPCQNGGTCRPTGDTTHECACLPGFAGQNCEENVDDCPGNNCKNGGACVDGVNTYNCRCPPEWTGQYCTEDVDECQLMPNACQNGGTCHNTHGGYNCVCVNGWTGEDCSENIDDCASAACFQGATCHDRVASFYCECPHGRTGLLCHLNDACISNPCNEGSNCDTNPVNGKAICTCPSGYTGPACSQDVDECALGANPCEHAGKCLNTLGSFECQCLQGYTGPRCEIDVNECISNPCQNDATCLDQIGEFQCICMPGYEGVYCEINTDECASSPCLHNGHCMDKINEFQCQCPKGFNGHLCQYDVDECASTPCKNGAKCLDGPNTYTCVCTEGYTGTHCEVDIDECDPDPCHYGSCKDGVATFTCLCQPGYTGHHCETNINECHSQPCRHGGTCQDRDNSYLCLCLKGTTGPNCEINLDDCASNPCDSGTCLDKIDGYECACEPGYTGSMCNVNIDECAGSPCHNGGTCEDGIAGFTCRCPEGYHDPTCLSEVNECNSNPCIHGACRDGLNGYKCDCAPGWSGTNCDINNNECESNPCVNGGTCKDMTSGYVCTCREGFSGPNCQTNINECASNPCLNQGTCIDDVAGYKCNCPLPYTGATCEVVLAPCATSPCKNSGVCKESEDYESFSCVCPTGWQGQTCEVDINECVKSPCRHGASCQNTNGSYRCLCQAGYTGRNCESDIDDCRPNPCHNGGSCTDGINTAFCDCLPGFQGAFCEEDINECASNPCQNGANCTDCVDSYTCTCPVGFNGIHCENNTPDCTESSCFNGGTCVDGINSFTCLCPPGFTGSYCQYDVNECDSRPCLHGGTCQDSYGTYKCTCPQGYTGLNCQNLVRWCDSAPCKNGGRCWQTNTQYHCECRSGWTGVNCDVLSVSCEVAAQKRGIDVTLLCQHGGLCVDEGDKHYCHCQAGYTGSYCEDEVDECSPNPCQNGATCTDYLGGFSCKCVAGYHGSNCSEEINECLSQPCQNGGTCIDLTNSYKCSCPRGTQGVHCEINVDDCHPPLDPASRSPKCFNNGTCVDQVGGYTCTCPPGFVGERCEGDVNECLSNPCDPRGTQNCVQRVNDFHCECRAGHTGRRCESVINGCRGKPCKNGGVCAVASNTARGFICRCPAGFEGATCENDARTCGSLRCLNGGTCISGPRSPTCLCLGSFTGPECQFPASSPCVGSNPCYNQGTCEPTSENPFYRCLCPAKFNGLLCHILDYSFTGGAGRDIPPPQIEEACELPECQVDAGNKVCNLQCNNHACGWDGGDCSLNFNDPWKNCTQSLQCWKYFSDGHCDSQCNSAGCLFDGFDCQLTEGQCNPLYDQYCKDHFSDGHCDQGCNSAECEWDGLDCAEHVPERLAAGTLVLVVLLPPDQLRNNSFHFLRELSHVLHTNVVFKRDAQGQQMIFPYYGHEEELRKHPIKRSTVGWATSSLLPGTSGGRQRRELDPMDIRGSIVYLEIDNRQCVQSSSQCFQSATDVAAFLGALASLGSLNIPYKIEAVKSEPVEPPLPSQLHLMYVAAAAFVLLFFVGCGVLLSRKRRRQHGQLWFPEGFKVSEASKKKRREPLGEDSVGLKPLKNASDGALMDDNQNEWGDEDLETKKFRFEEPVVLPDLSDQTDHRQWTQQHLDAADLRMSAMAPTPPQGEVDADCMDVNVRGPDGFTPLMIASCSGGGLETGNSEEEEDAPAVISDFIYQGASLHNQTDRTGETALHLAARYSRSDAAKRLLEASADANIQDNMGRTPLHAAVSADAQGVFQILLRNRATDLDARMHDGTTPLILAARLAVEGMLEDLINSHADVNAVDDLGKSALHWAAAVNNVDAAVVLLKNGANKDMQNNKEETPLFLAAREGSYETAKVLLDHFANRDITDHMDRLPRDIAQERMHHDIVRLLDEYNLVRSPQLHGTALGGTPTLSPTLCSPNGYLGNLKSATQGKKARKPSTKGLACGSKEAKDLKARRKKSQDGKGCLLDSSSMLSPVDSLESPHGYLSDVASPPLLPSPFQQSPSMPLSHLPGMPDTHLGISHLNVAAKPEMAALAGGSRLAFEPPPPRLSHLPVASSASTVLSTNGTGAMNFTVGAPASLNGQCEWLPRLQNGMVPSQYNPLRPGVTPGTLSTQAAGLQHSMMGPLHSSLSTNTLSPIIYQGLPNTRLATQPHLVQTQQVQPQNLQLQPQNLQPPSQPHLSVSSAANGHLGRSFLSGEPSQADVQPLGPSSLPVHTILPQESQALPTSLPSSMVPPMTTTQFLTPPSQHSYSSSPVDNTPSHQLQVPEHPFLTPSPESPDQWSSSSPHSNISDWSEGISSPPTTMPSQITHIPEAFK"}, "[3]": {"biological_target": "Notch1 expressed in N1rep ES cells (UniProt Q01705)", "remark": "listed apart in the source"}, "[4]": {"biological_target": "Notch2 expressed in N2rep ES cells (UniProt O35516)"}},
  "data": [
    {"substance": "D1contD4 (DLL1 N-terminus through EGF5 with the N1 contact amino acids of the MNNL and DSL domains replaced by those of DLL4) (domain or fragment)", "values": [
      {"measurement": "Kd", "setting": "[1]", "result": 326, "unit": "nM"}
    ]},
    {"substance": "D4^N109G (DLL4 N-terminus through EGF5 with the N109G mutation) (from UniProt Q9JI71 27-686) (domain or fragment)", "values": [
      {"measurement": "Kd", "setting": "[1]", "result": 341, "unit": "nM"}
    ]},
    {"substance": "D4contD1 (DLL4 N-terminus through EGF5 with the N1 contact amino acids of the MNNL and DSL domains replaced by those of DLL1) (domain or fragment)", "values": [
      {"measurement": "Kd", "setting": "[1]", "result": 327, "unit": "nM"}
    ]},
    {"substance": "mDLL1 (mouse DLL1, full length, expressed on ES cells) (from UniProt Q61483 18-722) (ligand)", "values": [
      {"measurement": "luciferase Notch reporter in N1rep ES cells co-cultured with DLL1-expressing ES cells, against the basal signal with E14 ES cells", "setting": "[2]", "result": 10, "unit": "fold"}
    ]},
    {"substance": "mDLL4 (mouse DLL4, full length, expressed on ES cells) (from UniProt Q9JI71 27-686) (ligand)", "values": [
      {"measurement": "luciferase Notch reporter in N1rep ES cells co-cultured with ligand-expressing ES cells; activation by DLL4 as fold of activation by DLL1, non-normalized", "setting": "[3]", "result": "12.5 fold of DLL1"},
      {"measurement": "luciferase Notch reporter in N1rep ES cells co-cultured with ligand-expressing ES cells; activation by DLL4 normalized to DLL1 activation and corrected for protein expression and cell surface levels", "setting": "[3]", "result": "9.42 fold of DLL1"},
      {"measurement": "luciferase Notch reporter in N2rep ES cells co-cultured with ligand-expressing ES cells; activation by DLL4 as fold of activation by DLL1, non-normalized", "setting": "[4]", "result": "0.468 fold of DLL1"},
      {"measurement": "luciferase Notch reporter in N2rep ES cells co-cultured with ligand-expressing ES cells; activation by DLL4 normalized to DLL1 activation and corrected for protein expression and cell surface levels", "setting": "[4]", "result": "0.35 fold of DLL1"}
    ]}
  ]
}
